The target of test [1] is human erythrocyte ankyrin (human) (UniProt P16157). Kind of test: co-sedimentation.
For test [2] the target is unchanged. Briefly: pull-down.
In test [3] the target is Na,K-ATPase (alpha-beta heterodimer) of dog kidney membranes (dog (endogenous in canine kidney)) (UniProt P50997). Briefly: co-sedimentation.

“And” between values parts separate entries of the source, which are not always exact repeats. Identical values can stand only once.

human erythrocyte ankyrin (human), sequence (P16157 whole entry): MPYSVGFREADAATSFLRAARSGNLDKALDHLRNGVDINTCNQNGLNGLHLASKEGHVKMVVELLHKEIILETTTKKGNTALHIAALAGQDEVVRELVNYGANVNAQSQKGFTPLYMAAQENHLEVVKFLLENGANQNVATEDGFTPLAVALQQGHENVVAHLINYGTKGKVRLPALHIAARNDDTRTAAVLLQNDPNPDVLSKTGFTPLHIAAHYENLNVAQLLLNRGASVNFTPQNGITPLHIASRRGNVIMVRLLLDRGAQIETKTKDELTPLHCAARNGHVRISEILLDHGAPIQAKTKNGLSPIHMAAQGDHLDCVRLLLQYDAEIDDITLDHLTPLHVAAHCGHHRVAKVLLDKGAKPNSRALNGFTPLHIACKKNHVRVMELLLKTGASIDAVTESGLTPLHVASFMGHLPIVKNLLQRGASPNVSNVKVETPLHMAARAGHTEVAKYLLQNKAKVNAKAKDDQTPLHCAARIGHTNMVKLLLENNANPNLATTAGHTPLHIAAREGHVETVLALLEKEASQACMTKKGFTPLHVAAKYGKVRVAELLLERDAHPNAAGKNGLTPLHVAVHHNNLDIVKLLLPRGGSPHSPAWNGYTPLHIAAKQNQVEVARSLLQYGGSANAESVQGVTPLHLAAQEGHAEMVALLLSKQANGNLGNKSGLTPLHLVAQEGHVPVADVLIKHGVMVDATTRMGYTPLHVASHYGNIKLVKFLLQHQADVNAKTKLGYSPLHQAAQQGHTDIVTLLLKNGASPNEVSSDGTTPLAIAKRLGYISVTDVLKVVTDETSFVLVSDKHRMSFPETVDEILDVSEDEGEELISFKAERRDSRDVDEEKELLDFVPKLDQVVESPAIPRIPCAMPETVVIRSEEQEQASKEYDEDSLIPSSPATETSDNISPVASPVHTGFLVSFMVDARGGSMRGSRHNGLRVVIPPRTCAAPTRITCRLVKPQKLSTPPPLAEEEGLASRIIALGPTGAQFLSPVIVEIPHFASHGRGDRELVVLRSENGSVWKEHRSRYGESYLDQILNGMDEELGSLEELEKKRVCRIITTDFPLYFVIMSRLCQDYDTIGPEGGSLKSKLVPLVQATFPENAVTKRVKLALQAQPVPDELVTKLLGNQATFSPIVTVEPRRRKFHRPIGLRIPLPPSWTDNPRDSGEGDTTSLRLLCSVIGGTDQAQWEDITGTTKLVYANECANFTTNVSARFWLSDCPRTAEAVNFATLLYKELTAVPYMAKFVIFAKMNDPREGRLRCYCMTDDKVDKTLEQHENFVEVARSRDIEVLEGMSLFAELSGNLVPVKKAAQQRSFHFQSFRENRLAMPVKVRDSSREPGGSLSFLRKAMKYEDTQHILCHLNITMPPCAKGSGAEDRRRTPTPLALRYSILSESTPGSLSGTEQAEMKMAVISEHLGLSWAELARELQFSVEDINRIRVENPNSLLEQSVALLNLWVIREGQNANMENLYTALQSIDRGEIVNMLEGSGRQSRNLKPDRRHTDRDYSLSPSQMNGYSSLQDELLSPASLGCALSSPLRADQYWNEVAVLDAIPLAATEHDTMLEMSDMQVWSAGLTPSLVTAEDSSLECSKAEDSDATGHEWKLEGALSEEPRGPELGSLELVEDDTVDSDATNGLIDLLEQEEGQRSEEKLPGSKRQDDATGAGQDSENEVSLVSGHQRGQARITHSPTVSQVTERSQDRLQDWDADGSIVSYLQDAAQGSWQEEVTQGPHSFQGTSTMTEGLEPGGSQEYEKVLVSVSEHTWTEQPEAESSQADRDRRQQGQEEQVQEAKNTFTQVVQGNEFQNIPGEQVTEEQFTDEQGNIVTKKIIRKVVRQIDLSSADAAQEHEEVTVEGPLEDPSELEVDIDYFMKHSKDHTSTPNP

The term Ki denotes the equilibrium dissociation constant of an inhibitor or competing ligand from its target. Turning to “43-kD cytoplasmic domain of human erythrocyte band 3 (domain or fragment)”, the Ki in test [1] was 3500 nM.
Turning to “Na,K-ATPase (alpha-beta heterodimer) of dog kidney membranes (from UniProt P50997 1-1021; P06583 1-303) (complex)”, in test [2], the fold bound to immobilized ankyrin against immobilized BSA stood at 17 fold.
As a reminder, the Kd is the equilibrium constant for the complex coming apart. As a reminder, the stoichiometry N is the number of molecules, sites or subunits per partner or assembly. For the substance “human erythrocyte ankyrin (from UniProt P16157 1-1881) (natural protein)”, in test [3], the equilibrium dissociation constant (Kd) was 2590 nM and 2570 nM; the stoichiometry N (molecules of Na,K-ATPase per ankyrin) lay in the range of 3.5 to 4.8. For the same substance, in test [3] (scale: molecules of Na,K-ATPase alpha-beta heterodimer per ankyrin), the stoichiometry N was 2.93 and 5.05.

Source of the values: PMC2115445.
